Seven molecules from patent EP4480961A1 (Consejo Superior De Investigaciones Científicas, dated 2024) can be followed below.

As a reminder, the Kd is the concentration at which binding is half-saturated.

One test concerns the target T1, human seroalbumin (human, UniProt P02768 25-609).
T1 construct: also called hSA
As to the kind of experiment: cross-reactivity test, yeast display flow cytometry. For orientation: A flow cytometer gives signals particle by particle.

Test [1] concerns the target T2, soluble recombinant OmpF (outer membrane porin F) from Yersinia ruckeri (Yersinia ruckeri).
T2 construct: also called rOmpF; Y. ruckeri OmpF
As to the kind of experiment: BLI, biotinylated chimera on streptavidin tips, soluble rOmpF 0.5-2.3 µM, PBS pH 7.4. Background: In BLI a coated tip is dipped into the sample, and binding shifts an interference pattern.

Test [2] has as its target T3, Y. ruckeri OmpF embedded in the outer membrane of E. coli MDS42 ΔompF cells (Yersinia ruckeri).
T3 construct: whole, on cells; Cells were fixed with PFA for flow cytometry; also called OmpF Y. ruckeri expressing strain; specific target
In words: flow cytometry on E. coli expressing Y. ruckeri OmpF, chimera at 0.1 µM and 1 µM, PBS.

For test [3], the target named is T3, Y. ruckeri OmpF embedded in the outer …. As to the kind of experiment: flow cytometry titration in fresh water.
Test [4] has as its target T4, wild-type E. coli OmpF embedded in the membrane of E. coli MDS42 cells (Escherichia coli, UniProt P02931 23-362).
T4 construct: whole, on cells
T4 sequence: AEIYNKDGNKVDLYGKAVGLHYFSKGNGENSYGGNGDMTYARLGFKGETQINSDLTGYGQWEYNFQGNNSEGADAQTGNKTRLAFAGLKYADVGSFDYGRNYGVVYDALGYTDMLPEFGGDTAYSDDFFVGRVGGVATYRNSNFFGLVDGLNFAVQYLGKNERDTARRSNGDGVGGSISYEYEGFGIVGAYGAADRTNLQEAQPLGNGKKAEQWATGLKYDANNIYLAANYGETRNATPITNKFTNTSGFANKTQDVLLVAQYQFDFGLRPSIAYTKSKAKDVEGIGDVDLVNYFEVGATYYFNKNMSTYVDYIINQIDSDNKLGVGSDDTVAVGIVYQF
As to the kind of experiment: flow cytometry titration in fresh water.

In test [5] the target is T4, wild-type E. coli OmpF embedded in the …. In words: flow cytometry titration in PBS, 5 concentrations 0.001-3 µM, […].
For test [6], the target named is T3, Y. ruckeri OmpF embedded in the outer …. As to the kind of experiment: flow cytometry titration in PBS, 5 concentrations 0.001-3 µM, normalised.
The target of the next test is T5, ovalbumin (UniProt P01012 2-386).
T5 construct: also called ovoalbumin
T5 sequence (looked up): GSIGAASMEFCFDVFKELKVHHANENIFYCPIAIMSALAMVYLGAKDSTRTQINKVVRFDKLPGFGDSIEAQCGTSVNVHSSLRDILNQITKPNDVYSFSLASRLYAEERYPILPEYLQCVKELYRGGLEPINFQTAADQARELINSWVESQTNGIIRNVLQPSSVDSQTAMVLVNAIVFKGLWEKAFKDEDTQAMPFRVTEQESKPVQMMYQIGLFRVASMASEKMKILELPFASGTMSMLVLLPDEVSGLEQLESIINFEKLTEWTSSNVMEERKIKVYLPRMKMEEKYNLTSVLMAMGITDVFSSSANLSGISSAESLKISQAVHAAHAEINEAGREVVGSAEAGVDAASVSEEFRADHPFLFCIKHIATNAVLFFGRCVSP
As to the kind of experiment: cross-reactivity test, yeast display flow cytometry.

Changes are numbered by the printed parent chain.

T1 sequence (P02768 25-609): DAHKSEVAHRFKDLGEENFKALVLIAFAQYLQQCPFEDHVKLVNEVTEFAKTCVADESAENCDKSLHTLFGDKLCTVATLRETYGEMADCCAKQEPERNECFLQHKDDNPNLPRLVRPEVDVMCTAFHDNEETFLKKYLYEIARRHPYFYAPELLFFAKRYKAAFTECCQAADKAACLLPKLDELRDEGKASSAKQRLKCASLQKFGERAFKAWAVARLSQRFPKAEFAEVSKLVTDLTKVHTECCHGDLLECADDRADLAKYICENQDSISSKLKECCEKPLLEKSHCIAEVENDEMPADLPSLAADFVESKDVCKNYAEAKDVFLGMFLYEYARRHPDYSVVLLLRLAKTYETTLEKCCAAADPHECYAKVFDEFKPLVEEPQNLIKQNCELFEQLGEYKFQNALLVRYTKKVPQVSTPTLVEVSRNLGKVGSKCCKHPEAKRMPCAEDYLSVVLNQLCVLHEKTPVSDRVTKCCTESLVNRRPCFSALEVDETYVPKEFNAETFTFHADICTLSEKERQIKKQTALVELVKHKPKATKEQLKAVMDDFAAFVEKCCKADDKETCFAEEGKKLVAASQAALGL

B1: L1 engineered rcSso7d binder (designed binder)
chain: ATVKFTYQGEEKQVDISKIKMVIRMGQMILFTYDEGGGAMGRGIVSEKDAPKELLQMLEKQ
notes: also called clone L1
On to B1, for which the binding result with human seroalbumin was “no binding (tested: 1 µM)”.

B2: DBP1-L1 chimeric protein (designed binder)
chain: MADLPQKVSNLSINNKENGGGGGKSSYVPPHLRSRGKPSFERRSPKQKDKVTGGDFFRRAGRQTGNNGGFFGFSKERNGGTSANYNRRGSSNYKSSGNRWVNGKHIPGPKNAKLQKAELFGVHDDPDYHSSGIKFDNYDNIPVDASGKDVPEPILGGRTRGGGGFFNSRNNGSRDYRKHGGNGSFGSTRPRNTGTSNWGSIGGGFRNDNEKNGYGNSNASWWGSATVKFTYQGEEKQVDISKIKMVIRMGQMILFTYDEGGGAMGRGIVSEKDAPKELLQMLEKQ
notes: Biotinylated and immobilised on streptavidin tips for BLI; biotinylated for microscopy and flow cytometry
With B2, the Kd in test [1] is 119 nM. The “percentage of double positives” value in test [2] was over 75%.

B3: DBP1-L2 chimeric protein (designed binder)
chain: B2 chain with M245Y, M249F, M252K, L254M, T256K, M264H, R266S, I268M
notes: Biotinylated and immobilised on streptavidin tips for BLI
Consider B3, for which the Kd in test [1] was 26 nM. The “percentage of double positives” value in test [2] is over 75%.

B4: mHP1α-L1 chimeric protein (designed binder)
chain: MGKKTKRTADSSSSEDEEEYVVEKVLDRRMVKGQVEYLLKWKGFSEEHNTWEPEKNLDCPELISEFMKKYKKMKEGENNKPREKSEGNKRKSSFSNSADDIKSKKKREQSNDIARGFERGLEPEKIIGATDSCGDLMFLMKWKDTDEADLVLAKEANVKCPQIVIAFYEERLTWHAYPEDAENKEKESAKSGSATVKFTYQGEEKQVDISKIKMVIRMGQMILFTYDEGGGAMGRGIVSEKDAPKELLQMLEKQ
notes: also called mHP1-L1
With B4, the Kd is 140 nM in test [3] and 130 nM in test [4].

B5: mHP1α-R2 chimeric protein (designed binder)
chain: B4 chain with I216M, M218N, M221R, L223R, T225M, M233I, R235L, I237E
notes: also called mHP1-R2
Take B5: the Kd came to 300 nM in test [3], 280 nM in test [4], 82 nM in test [5] and 75 nM in test [6].

B6: mHP1α-L2 chimeric protein (designed binder)
chain: B4 chain with M214Y, M218F, M221K, L223M, T225K, M233H, R235S, I237M
notes: Biotinylated for flow cytometry
Consider B6, for which, in test [2], the “percentage of double positives” value was over 75%.

B7: L2 engineered rcSso7d binder (designed binder)
chain: ATVKFTYQGEEKQVDISKIKYVIRFGQKIMFKYDEGGGAHGSGMVSEKDAPKELLQMLEKQ
notes: also called clone L2
Take B7: the binding result in the test with ovalbumin and with human seroalbumin was “no binding (tested: 1 µM)” each time.
